Results: publication PMC8121154, “The effects of pH and NaCl concentration on the structure of β‐casein from buffalo milk” (Food Science & Nutrition, 2021)

Biological target: the molecule itself
Test: dynamic light scattering; purified β‐CN in 10 mM sodium phosphate buffer at pH 5.5 and pH 5.0, room temperature; aggregates, micelles of 100 nm at pH 5.0

B1: native β‐casein purified from buffalo milk (natural protein, buffalo (purified from buffalo milk), UniProt Q9TSI0 16-224, looked up)
chain: RELEELNVPGEIVESLSSSEESITHINKKIEKFQSEEQQQMEDELQDKIHPFAQTQSLVYPFPGPIPKSLPQNIPPLTQTPVVVPPFLQPEIMGVSKVKEAMAPKHKEMPFPKYPVEPFTESQSLTLTDVENLHLPLPLLQSWMHQPPQPLPPTVMFPPQSVLSLSQSKVLPVPQKAVPYPQRDMPIQAFLLYQEPVLGPVRGPFPIIV
notes: β‐casein of buffalo milk (water buffalo), native protein purified from milk; single band of approximately 25 kDa on SDS-PAGE; Native milk protein; also called β‐CN; buffalo β‐CN
B1: binds.
